According to patent US20230265179A1 (TWIST BIOSCIENCE, published 2023):
Positions count from the first letter of the chain named.

T1: IL1RL2 over-expressed on Expi293 cells (UniProt Q9HB29 20-575, limits assumed)
T1 construct: whole, on cells; Target of the flow cytometry assay; MFI ratio is over-expressing cells over parent cells
T1 sequence (looked up): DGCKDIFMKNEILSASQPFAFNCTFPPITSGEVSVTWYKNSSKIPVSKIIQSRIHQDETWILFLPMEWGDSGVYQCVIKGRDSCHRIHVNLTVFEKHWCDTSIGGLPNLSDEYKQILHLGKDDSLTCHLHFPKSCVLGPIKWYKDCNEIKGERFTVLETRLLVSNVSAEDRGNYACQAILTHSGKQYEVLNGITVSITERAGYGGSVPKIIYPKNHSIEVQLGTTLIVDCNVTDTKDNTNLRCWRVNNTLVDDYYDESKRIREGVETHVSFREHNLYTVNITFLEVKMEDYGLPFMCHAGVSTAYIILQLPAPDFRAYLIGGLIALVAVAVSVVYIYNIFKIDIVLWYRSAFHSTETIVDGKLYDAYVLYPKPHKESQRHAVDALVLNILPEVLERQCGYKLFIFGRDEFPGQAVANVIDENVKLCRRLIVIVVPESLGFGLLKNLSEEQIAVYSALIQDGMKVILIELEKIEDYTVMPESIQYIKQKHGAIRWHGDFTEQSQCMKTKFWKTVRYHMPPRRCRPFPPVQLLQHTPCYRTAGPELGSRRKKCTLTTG

B1: IL1RL2-52 (VHH)
VHH: EVQLVESGGGLVQPGGSLRLSCAASGRTSTYDMGWFRQAPGKEREFVGAISWSGGLTSYADSVKGRFTISADNSKNTAYLQMNSLKPEDTAVYYCADVNGDWGQGTLVTVSS
notes: VHH-Fc based on IgG2 Fc
B2: IL1RL2-162 (antibody, V domains shown)
VH: EVQLLESGGGLVQPGGSLRLSCAASGFTFNHYGMGWVRQAPGKGLEWVSSIGANGAPTYYADSVKGRFTISRDNSKNTLYLQMNSLRAEDTAVYYCAKSYLSGTFDYWGQGTLVTVSS
VL: DIQMTQSPSSLSASVGDRVTITCQGGSPRSYYASWYQQKPGKAPKLLIYHTSRLQDGVPSRFSGSGSGTDFTLTISSLQPEDFATYYCQSYDKSNVVFGQGTKVEIK
notes: IgG2
B3: IL1RL2-53 (VHH)
VHH: EVQLVESGGGLVQPGGSLRLSCAASGSTFSPNVMGWFRQAPGKEREFVAAITWSGSSTTEYADSVKGRFTISADNSKNTAYLQMNSLKPEDTAVYYCAAANEYWVYVNPNRYTWGQGTLVTVSS
notes: VHH-Fc based on IgG2 Fc
B4: IL1RL2-50 (VHH)
VHH: EVQLVESGGGLVQPGGSLRLSCAASGSIFSIDAMGWFRQAPGKERESVAIIKTDGSTYYADSVKGRFTISADNSKNTAYLQMNSLKPEDTAVYYCAHRLGYCSGGSCYWPNYFDYWGQGTLVTVSS
notes: VHH-Fc based on IgG2 Fc
B5: IL1RL2-170 (antibody, V domains shown)
VH: EVQLLESGGGLVQPGGSLRLSCAASGFTFPVYNMAWVRQAPGKGLEWVSSISGYGSTTYYADSVKGRFTISRDNSKNTLYLQMNSLRAEDTAVYYCAKSYGAFDYWGQGTLVTVSS
VL: DIQMTQSPSSLSASVGDRVTITCSASQDINKYLNWYQQKPGKAPKLLIYHTSRLQDGVPSRFSGSGSGTDFTLTISSLQPEDFATYYCQQSYTTPWTFGQGTKVEIK
notes: IgG2
B6: IL1RL2-158 (antibody, V domains shown)
VH: EVQLLESGGGLVQPGGSLRLSCAASGFTFSSYFMSWVRQAPGKGLEWVSEISPSGSETYYADSVKGRFTISRDNSKNTLYLQMNSLRAEDTAVYYCARAYSSGWSLPFDYWGQGTLVTVSS
VL: DIQMTQSPSSLSASVGDRVTITCRASQGVRTSLAWYQQKPGKAPKLLIYATSTLQSGVPSRFSGSGSGTDFTLTISSLQPEDFATYYCAQGLRKPKTFGQGTKVEIK
notes: IgG2
B7: IL1RL2-167 (antibody, V domains shown)
VH: EVQLLESGGGLVQPGGSLRLSCAASGFTFSNYGVSWVRQAPGKGLEWVSGITRSGSTNYRDSVKGRFTISRDNSKNTLYLQMNSLRAEDTAVYYCAKGRRIFDYWGQGTLVTVSS
VL: DIQMTQSPSSLSASVGDRVTITCSGDKLGHTYTSWYQQKPGKAPKLLIYGKKNRPSGVPSRFSGSGSGTDFTLTISSLQPEDFATYYCQQSYSTPGITFGQGTKVEIK
notes: IgG2
B8: IL1RL2-28 (VHH)
VHH: EVQLVESGGGLVQPGGSLRLSCAASGFTLNDYAMGWFRQAPGKEREWVSSINWSGSTYYADSVKGRFTISADNSKNTAYLQMNSLKPEDTAVYYCAKAYSSSWPYFDYWGQGTLVTVSS
notes: VHH-Fc based on IgG2 Fc
B9: IL1RL2-40 (VHH)
VHH: EVQLVESGGGLVQPGGSLRLSCAASGFTFSTYTMGWFRQAPGKEREFVAGIAWNGASGTLTSYADSVKGRFTISADNSKNTAYLQMNSLKPEDTAVYYCASAGRWGQGTLVTVSS
notes: VHH-Fc based on IgG2 Fc
B10: IL1RL2-46 (VHH)
VHH: EVQLVESGGGLVQPGGSLRLSCAASGFTLGDYVMGWFRQAPGKEREFVATIRWGTTDTYYADSVKGRFTISADNSKNTAYLQMNSLKPEDTAVYYCQSWYYDILTGYSDYYYMDVWGQGTLVTVSS
notes: VHH-Fc based on IgG2 Fc
B11: IL1RL2-156 (antibody, V domains shown)
VH: EVQLLESGGGLVQPGGSLRLSCAASGFTFSSYWNHWVRQAPGKGLEWVSTIGPSGTSTYYADSVKGRFTISRDNSKNTLYLQMNSLRAEDTAVYYCAKSTPNIPLAYWGQGTLVTVSS
VL: DIQMTQSPSSLSASVGDRVTITCRASQSIRRYLNWYQQKPGKAPKLLIYDASSSQSGVPSRFSGSGSGTDFTLTISSLQPEDFATYYCQQSTILPLTFGQGTKVEIK
notes: IgG2
B12: IL1RL2-185 (antibody, V domains shown)
VH: EVQLLESGGGLVQPGGSLRLSCAASGFTFDKYLMSWVRQAPGKGLEWVSAISGRGDNTYYADSVKGRFTISRDNSKNTLYLQMNSLRAEDTAVYYCARGGDTYFDYFDYWGQGTLVTVSS
VL: B11 VL with Y32F, D50Q, S54L, T92H, I93S, L94S
notes: IgG2
B13: IL1RL2-33 (VHH)
VHH: EVQLVESGGGLVQPGGSLRLSCAASGRSFNLYYMGWFRQAPGKEREFVASIFTDDGDSYYADSVKGRFTISADNSKNTAYLQMNSLKPEDTAVYYCAAGAGWAGTMTDYNWGQGTLVTVSS
notes: VHH-Fc based on IgG2 Fc
B14: IL1RL2-47 (VHH)
VHH: EVQLVESGGGLVQPGGSLRLSCAASGGTFSNYAMGWFRQAPGKEREFVAAIGGVTDYADSVKGRFTISADNSKNTAYLQMNSLKPEDTAVYYCAAFAYEEGVYRWDWGQGTLVTVSS
notes: VHH-Fc based on IgG2 Fc
B15: IL1RL2-173 (antibody, V domains shown)
VH: EVQLLESGGGLVQPGGSLRLSCAASGFTFSEYGMWWVRQAPGKGLEWVSEISPSGGYTYYADSVKGRFTISRDNSKNTLYLQMNSLRAEDTAVYYCAEQDVKGSSSFDYWGQGTLVTVSS
VL: DIQMTQSPSSLSASVGDRVTITCRPNQNIATYINWYQQKPGKAPKLLIYQMSHLASGVPSRFSGSGSGTDFTLTISSLQPEDFATYYCQQSYSTPSFGQGTKVEIK
notes: IgG2
B16: IL1RL2-45 (VHH)
VHH: EVQLVESGGGLVQPGGSLRLSCAASGFDFSVSWMGWFRQAPGKEREFVGSIDWITTNIYYADSVKGRFTISADNSKNTAYLQMNSLKPEDTAVYYCAANIEAGTTKSQGWGQGTLVTVSS
notes: VHH-Fc based on IgG2 Fc
B17: IL1RL2-51 (VHH)
VHH: EVQLVESGGGLVQPGGSLRLSCAASGFTFSPSWMGWFRQAPGKEREWVSSIDYSAEDTYYADSVKGRFTISADNSKNTAYLQMNSLKPEDTAVYYCAAFDGYSGSDWGQGTLVTVSS
B18: IL1RL2-176 (antibody, V domains shown)
VH: EVQLLESGGGLVQPGGSLRLSCAASGFTFSNSYISWVRQAPGKGLEWVSSIRGSSSSTYYADSVKGRFTISRDNSKNTLYLQMNSLRAEDTAVYYCARSYGGGFDYWGQGTLVTVSS
VL: DIQMTQSPSSLSASVGDRVTITCSGDNLRGYYASWYQQKPGKAPKLLIYQNDKRPSGVPSRFSGSGSGTDFTLTISSLQPEDFATYYCFQGSHAPLTFGQGTKVEIK
notes: IgG2
B19: IL1RL2-26 (VHH)
VHH: EVQLVESGGGLVQPGGSLRLSCAASGSIFSIYDMGWFRQAPGKEREFVAAISGWSGGRTSYADSVKGRFTISADNSKNTAYLQMNSLKPEDTAVYYCAAIAYEEGVYRWDWGQGTLVTVSS
notes: VHH-Fc based on IgG2 Fc
B20: IL1RL2-178 (antibody, V domains shown)
VH: EVQLLESEGGLVQPGGSLRLSCAASGFTFSGYDMQWVRQAPGKGLEWVSSISSTGFKTYYADSVKGRFTISRDNSKNTLYLQMNSLRAEDTAVYYCAKAGPPFAGSRGNSFDYWGQGTLVTVSS
VL: DIQMTQSPSSLSASVGDRVTITCSGDNLRGYYASWYQQKPGKAPKLLIYGTSDLQSGVPSRFSGSGSGTDFTLTISSLQPEDFATYYCYSRDRSGNHLGMFGQGTKVEIK
notes: IgG2
B21: IL1RL2-48 (VHH)
VHH: EVQLVESGGGLVQPGGSLRLSCAASGRTFSSYDMGWFRQAPGKERELVAAITWNSGSTLYADSVKGRFTISADNSKNTAYLQMNSLKPEDTAVYYCADVNGDWGQGTLVTVSS
notes: VHH-Fc based on IgG2 Fc
B22: IL1RL2-56 (VHH)
VHH: B21 VHH with S31T, L47F, T52S, N54G, S55G, S57L, L59V
notes: VHH-Fc based on IgG2 Fc
B23: IL1RL2-184 (antibody, V domains shown)
VH: EVQLLESGGGLVQPGGSLRLSCAASGFTFSDYDMSWVRQAPGKGLEWVSSISPSGGWTEYADSVKGRFTISRDNSKNTLYLQMNSLRAEDTAVYYCARHDYSNYPYFDYWGQGTLVTVSS
VL: DIQMTQSPSSLSASVGDRVTITCRASQTIGDYLNWYQQKPGKAPKLLIYTASNLQNGVPSRFSGSGSGTDFTLTISSLQPEDFATYYCQQGFSNPWTFGQGTKVEIK
notes: IgG2
B24: IL1RL2-38 (VHH)
VHH: EVQLVESGGGLVQPGGSLRLSCAASGRSRYGMGWFRQAPGKEREFVAAINWNGASTYYADSVKGRFTISADNSKNTAYLQMNSLKPEDTAVYYCAVSQPLNYYTYYDARRYDWGQGTLVTVSS
notes: VHH-Fc based on IgG2 Fc
B25: IL1RL2-181 (antibody, V domains shown)
VH: EVQLLESGGGLVQPGGSLRLSCAASGFTFGQESMYWVRQAPGKGLEWVSGITRSGSTNYRDSVKGRFTISRDNSKNTLYLQMNSLRAEDTAVYYCAKQLGEEFDYWGQGTLVTVSS
VL: DIQMTQSPSSLSASVGDRVTITCTGDKLAEKYVSWYQQKPGKAPKLLIYAKNNRPSGVPSRFSGSGSGTDFTLTISSLQPEDFATYYCQQWSSNPLTFGQGTKVEIK
notes: IgG2

molecular target: T1, IL1RL2 over-expressed on Expi293 cells; assay: flow cytometry, over-expressing Expi293 vs parent cells, 100 nM antibody;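 note: ratio is mean fluorescence intensity on over-expressing Expi293 cells divided by that measured on parental Expi293 cells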
Experimental: All incubations and washes were in buffer containing PBS+1% BSA. MFI Ratio is defined by the mean fluorescence intensity (MFI) of the cytokine over-expressing Expi293 cell over the Expi293 parent cell. […] EC50 was calculated in GraphPad Prism.

Binder	100 nM FACS (MFI Ratio)
B1	6.88
B2	4.26
B3	4.14
B4	151
B5	3.95
B6	14.8
B7	3.08
B8	13.6
B9	31
B10	15.6
B11	0.69
B12	205
B13	15.2
B14	13.2
B15	11.2
B16	6.82
B17	9.68
B18	0.72
B19	39.5
B20	37
B21	7.83
B22	3.83
B23	3.19
B24	7.41
B25	1.02
